From US20100015126A1, “Methods of Binding of Cross-Beta Structures By Chaperones” (priority 2006, published 2010)
Blank lines part the entries; values can stand above or below the substance they belong to.

Assays:
BiP-Sepharose = biological target: T1, BiP-Sepharose (Homo sapiens, UniProt P11021); assay: Experiment 2: BiP-Sepharose extraction from six synovial fluid samples of RA patients and mass spectrometry; format: binding; details: BiP-Sepharose eluate, synovial fluid of RA patient
T1 construct: The human BiP gene except the signal peptide encoding region was obtained from Geneart (Germany); linker […]; made in house; host or cells: HEK 293E cells, transient transfection, PABC674 vector; secreted into the medium
T1 sequence (P11021 19-654): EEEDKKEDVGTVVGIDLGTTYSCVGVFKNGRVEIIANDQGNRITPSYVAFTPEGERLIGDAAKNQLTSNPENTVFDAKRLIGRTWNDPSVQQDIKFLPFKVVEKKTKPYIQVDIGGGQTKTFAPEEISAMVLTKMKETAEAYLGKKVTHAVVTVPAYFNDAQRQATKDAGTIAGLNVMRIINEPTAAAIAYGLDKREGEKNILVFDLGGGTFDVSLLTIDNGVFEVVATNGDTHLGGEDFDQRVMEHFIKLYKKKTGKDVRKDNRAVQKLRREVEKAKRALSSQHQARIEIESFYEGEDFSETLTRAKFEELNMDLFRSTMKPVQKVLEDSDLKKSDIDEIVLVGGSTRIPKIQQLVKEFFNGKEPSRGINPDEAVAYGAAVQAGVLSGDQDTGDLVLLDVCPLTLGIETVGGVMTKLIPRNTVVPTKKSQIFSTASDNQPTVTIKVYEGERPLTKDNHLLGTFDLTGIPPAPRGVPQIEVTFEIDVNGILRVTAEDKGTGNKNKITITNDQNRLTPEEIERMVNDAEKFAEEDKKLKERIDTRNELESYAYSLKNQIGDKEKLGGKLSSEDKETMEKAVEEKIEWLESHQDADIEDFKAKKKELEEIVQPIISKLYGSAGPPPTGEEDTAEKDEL
Procedure: Six samples were incubated with the BiP-Sepharose, IgIV-Sepharose and the control-Sepharose: Normal pooled plasma, plasma of a patient I or of a patient II, with AL amyloidosis, serum of a patient III with RA (Rheumatoid Factor (RF) titer 682), control serum and synovial fluid of a patient IV with RA (RF titer 23). All samples were diluted 20× in HBS and applied to 200 μl beads in two volumes of 500 μl. One volume was incubated for 4 h at RT and supernatant was discarded after centrifugation (2 minutes at 1400 rpm). Subsequently, the second volume was applied to the same matrix and incubated overnight on a roller device at 4° C. […] To collect the eluates, the matrices were centrifuged and the two eluates were pooled for each sample.
Protein digests were desalted as described (Rappsilber et al., 2003), vacuum dried and dissolved in 2.5% formic acid.
For analysis of peptide mixtures, an Agilent 1100 HPLC system (Agilent Technologies) connected to a Thermo Finnigan LTQ-MS (Thermo Electron, Bremen, Germany) was used. Protein digests were injected on a trap column (Reprosil C18 RP (Dr Maisch, Germany), 20 mm×100 μm I.D.) at 5 μl/minute. Subsequently, the peptides were transferred with a split-reduced flow rate of 100 nL/minute solvent A (0.1 M acetic acid) on the analytical column (Reprosil C18 RP, 20 cm×50 μm I.D.). […] The column effluent was directly introduced into the ESI source of the mass spectrometer via a butt-connected nano-ESI emitter (New Objectives, Woburn, Mass.). The mass spectrometer was operated in the positive ion mode and parent ions were selected for fragmentation in data-dependent mode.
After mass spectrometric measurements, peak lists were generated using BioWorks software (Thermo Electron, Bremen, Germany). Protein identification was performed using Mascot software (www.matrixscience.com) by searching the IPIhuman database (version 3.24, downloaded from ftp://ftp.ebi.ac.uk/pub/databases/IPI/current) using the following settings: fully tryptic peptides, peptide tolerance 0.8 Da, MS/MS tolerance 0.9 Da, 1 missed cleavage allowed, carbamidomethyl (Cys) and oxidation (Met) as fixed and variable modification, respectively. The Scaffold software package (www.proteomesoftware.com) was used to parse the data and to filter peptides at a confidence level of 95%, allowing only protein identification with at least 2 peptides identified.
Those samples are listed below: • 1. […] One difference when compared to the protocol described above is that now with the twelve samples, elution buffer comprised 1 M NaCl. Again, a misfolded protein or a protein binding to misfolded protein is identified uniquely in the synovial fluid when no or a relatively very low number of fragments are detected in eluates of control-Sepharose.

human BiP [1] = biological target: T2, human BiP (Homo sapiens, UniProt P11021); assay: Competition ELISA: BiP binding to misfolded proteins under influence of crossbeta binding compounds
T2 construct: The human BiP gene except the signal peptide encoding region was obtained from Geneart (Germany); linker […]; made in house; host or cells: HEK 293E cells, transient transfection, PABC674 vector; secreted into the medium
T2 sequence (P11021 19-654): as above
Procedure: Binding of chaperones to immobilized (misfolded) protein ligands was determined using an enzyme linked immuno sorbent assay (ELISA) approach. For this purpose 50 μl/well of potential ligands at indicated concentrations or coat buffer only for control and background measurement purposes, were coated overnight at 4° C. or coated for 1 h at room temperature, with motion, in 50 mM NaHCO3 pH 9.6 (coat buffer). In general, ligands were coated at 5 μg/ml, unless stated otherwise. For example, BiP binding peptides 6BB# and oxLDL were coated at 50 μg/ml. Native haemoglobin (Sigma-Aldrich, H7379), albumin, IgIV Gammagard and ovalbumin controls were prepared from lyophilized stocks. The controls were prepared by dissolving lyophilized proteins at 1 mg/ml in PBS upon resuspending by pipetting, followed by a 30 minutes period at the roller device, at room temperature. The protein solutions were centrifuged for 10 minutes at 16,000*g and diluted in coat buffer. After coating the plates were washed at least three times with 50 mM Tris-HCl pH 7.3, 150 mM NaCl, 0.1% v/v Tween20, and blocked with Blocking reagent (Roche Diagnostics, Almere, The Netherlands; 11112589001), for 1 h at room temperature, with motion. Plates were washed three times and incubated in triplicate with indicated chaperone dilution series, at 50 μl/well, for 1 h at room temperature, with constant motion. For HSP90, 5 mM DTT is incorporated in the binding buffer (PBS/0.1% Tween20) to avoid unwanted disulfide bond formation of the HSP90. […] After four wash cycles, secondary antibodies were added to the wells when required, 50 μl/well, for 45′ at room temperature, with motion. RAMPO and SWARPO were used at 3000 times dilution. […] In a second experiment with more immobilized misfolded proteins and controls, the detection of bound HSP90 with the mix of two anti-HSP90 antibodies was achieved by mixing 1:1500 SWARPO with 1:3000 RAMPO. After 5 washes with wash buffer followed by two washes with PBS, binding of antibodies was assessed. Bound anti-FLAG-PO, peroxidase-conjugated rabbit anti-mouse immunoglobulins (RAMPO, P0260, DAKOCytomation, Glostrup, Denmark) or peroxidase-coupled swine anti-rabbit immunoglobulins (SWARPO, P0217, DAKOCytomation) was visualized with tetramethylbenzidine (TMB, #45.01.20,/#45.014.01, Biosource, Nivelles, Belgium). The reaction was stopped after 5 minutes with 1% H2SO4 in H2O. Plates were read at 450 nm. Triplicates were averaged and standard deviations calculated. Background signals obtained with buffer-coated wells were subtracted (binding of primary antibody to empty wells), as well as background signals obtained with ligand-coated wells in which the chaperones were omitted (binding of primary and secondary antibody to coated ligands). Subsequently, sub-optimal concentrations of chaperones for binding to misfolded protein ligands are determined, and these concentrations are used for inhibition studies.
In a subsequent study we analysed whether BiP interacts directly with the crossbeta structure, by performing ELISA binding studies with a fixed sub-optimal concentration of BiP and concentration series of crossbeta binding compounds. The results are depicted in FIGS. 12, 13 and Table 7. Binding of BiP without added crossbeta binding compounds was set to 100%.

human BiP [2] = biological target: T2, human BiP; assay: ELISA: binding of BiP-FLAG-His to immobilized (misfolded) protein ligands; details: ligands coated at 5 μg/ml; 6BB peptides and oxLDL 50 μg/ml
Procedure: Enzyme Linked Immunosorbent Assay for Testing of Chaperone Binding to Misfolded Proteins
Binding of chaperones to immobilized (misfolded) protein ligands was determined using an enzyme linked immuno sorbent assay (ELISA) approach. For this purpose 50 μl/well of potential ligands at indicated concentrations or coat buffer only for control and background measurement purposes, were coated overnight at 4° C. or coated for 1 h at room temperature, with motion, in 50 mM NaHCO3 pH 9.6 (coat buffer). In general, ligands were coated at 5 μg/ml, unless stated otherwise. For example, BiP binding peptides 6BB# and oxLDL were coated at 50 μg/ml. Native haemoglobin (Sigma-Aldrich, H7379), albumin, IgIV Gammagard and ovalbumin controls were prepared from lyophilized stocks. The controls were prepared by dissolving lyophilized proteins at 1 mg/ml in PBS upon resuspending by pipetting, followed by a 30 minutes period at the roller device, at room temperature. The protein solutions were centrifuged for 10 minutes at 16,000*g and diluted in coat buffer. After coating the plates were washed at least three times with 50 mM Tris-HCl pH 7.3, 150 mM NaCl, 0.1% v/v Tween20, and blocked with Blocking reagent (Roche Diagnostics, Almere, The Netherlands; 11112589001), for 1 h at room temperature, with motion. Plates were washed three times and incubated in triplicate with indicated chaperone dilution series, at 50 μl/well, for 1 h at room temperature, with constant motion. For HSP90, 5 mM DTT is incorporated in the binding buffer (PBS/0.1% Tween20) to avoid unwanted disulfide bond formation of the HSP90. Plates were washed three times and incubated with anti-FLAG antibody (mouse antibody, M2, peroxidase conjugate; Sigma, A-8592) for BiP-FLAG-His, anti-His-tag antibody (Mouse Monoclonal Antibody, Cat. No. 70796, Novagen [0.2 mg/ml]) for HSP60, a 1:1 mix of 500-fold diluted anti-HSP90beta antibodies (Stressgen, SPA-643 [mouse monoclonal IgM], SPA-646 [rabbit polyclonal]) for HSP90 and an anti-DnaK antibody (Stressgen, 023SPA-880D [mouse monoclonal antibody]) for DnaK. After four wash cycles, secondary antibodies were added to the wells when required, 50 μl/well, for 45′ at room temperature, with motion. RAMPO and SWARPO were used at 3000 times dilution. […] In a second experiment with more immobilized misfolded proteins and controls, the detection of bound HSP90 with the mix of two anti-HSP90 antibodies was achieved by mixing 1:1500 SWARPO with 1:3000 RAMPO. After 5 washes with wash buffer followed by two washes with PBS, binding of antibodies was assessed. Bound anti-FLAG-PO, peroxidase-conjugated rabbit anti-mouse immunoglobulins (RAMPO, P0260, DAKOCytomation, Glostrup, Denmark) or peroxidase-coupled swine anti-rabbit immunoglobulins (SWARPO, P0217, DAKOCytomation) was visualized with tetramethylbenzidine (TMB, #45.01.20,/#45.014.01, Biosource, Nivelles, Belgium). The reaction was stopped after 5 minutes with 1% H2SO4 in H2O. Plates were read at 450 nm. Triplicates were averaged and standard deviations calculated. Background signals obtained with buffer-coated wells were subtracted (binding of primary antibody to empty wells), as well as background signals obtained with ligand-coated wells in which the chaperones were omitted (binding of primary and secondary antibody to coated ligands). Subsequently, sub-optimal concentrations of chaperones for binding to misfolded protein ligands are determined, and these concentrations are used for inhibition studies. […] We have previously identified that a sub-fraction of IgIV molecules has affinity for misfolded proteins comprising crossbeta structure (pending patent application). Moreover, we identified that the sub-fraction of IgIV molecules directly binds to crossbeta structure and/or crossbeta structure induced conformation (not shown; pending patent application). […]

Substance: Serotransferrin precursor
# of unique peptides (BiP-Sepharose; Sample 5B): 1

Substance: Clusterin precursor
# of unique peptides (BiP-Sepharose; Sample 1B): 1
# of unique peptides (BiP-Sepharose; Sample 2B): 1
# of unique peptides (BiP-Sepharose; Sample 3B): 1

Substance: LFWPFEWI [6BB9]
Influence of Congo red on interaction of BiP with misfolded protein (human BiP [1]; fixed sub-optimal BiP concentration, concentration series of Congo red): ↓ (a ↓ sign refers to inhibited abolished binding of BiP)
Influence of ThS on interaction of BiP with misfolded protein (human BiP [1]; fixed sub-optimal BiP concentration, concentration series of ThS): ↓ (a ↓ sign refers to inhibited abolished binding of BiP)
Influence of ThT on interaction of BiP with misfolded protein (human BiP [1]; fixed sub-optimal BiP concentration, concentration series of ThT): ↓ (a ↓ sign refers to inhibited abolished binding of BiP)
Binding of concentration series of BiP to coated ligand (human BiP [2]): has been established

Substance: Thioflavin S [ThS]
Influence on interaction of BiP with misfolded proteins comprising crossbeta structure (summary in words) (human BiP [1]; BiP binding without compound set to 100%): can either potentiate BiP binding, or inhibit

Substance: Aβ1-40: amyloid-β 1-40 peptide coated in Example 7
Binding of concentration series of BiP to coated ligand (human BiP [2]): has been established

Substance: Ig kappa chain V-IV region Len, immunoglobulin kappa variable 4-1
# of unique peptides (BiP-Sepharose; Sample 3B): 1

Substance: Vitronectin precursor
# of unique peptides (BiP-Sepharose; Sample 1B): 1
# of unique peptides (BiP-Sepharose; Sample 5B): 2
# of unique peptides (BiP-Sepharose; Sample 6B): 1

Substance: Isoform 1 of Fibrinogen alpha chain precursor
# of unique peptides (BiP-Sepharose; Sample 1B): 3

Substance: 187 kDa protein, complement component 3
# of unique peptides (BiP-Sepharose; Sample 1B): 2
# of unique peptides (BiP-Sepharose; Sample 5B): 1

Substance: HSPA5 protein/BiP
# of unique peptides (BiP-Sepharose; Sample 1B): 21
# of unique peptides (BiP-Sepharose; Sample 2B): 12
# of unique peptides (BiP-Sepharose; Sample 3B): 19
# of unique peptides (BiP-Sepharose; Sample 4B): 10
# of unique peptides (BiP-Sepharose; Sample 5B): 10
# of unique peptides (BiP-Sepharose; Sample 6B): 17

Now from value to substance:

# of unique peptides (BiP-Sepharose; Sample 2B): 1
# of unique peptides (BiP-Sepharose; Sample 3B): 1
Substance: Neutrophil defensin 1 precursor

# of unique peptides (BiP-Sepharose; Sample 1B): 1
# of unique peptides (BiP-Sepharose; Sample 3B): 3
Substance: Haptoglobin precursor

# of unique peptides (BiP-Sepharose; Sample 1B): 3
# of unique peptides (BiP-Sepharose; Sample 3B): 5
Substance: IGKV1-5 protein, immunoglobulin kappa variable 1-5

# of unique peptides (BiP-Sepharose; Sample 1B): 1
Substance: Apolipoprotein A-II precursor

Binding of concentration series of BiP to coated ligand (human BiP [2]): did not bind
Substance: thrombin

Binding of concentration series of BiP to coated ligand (human BiP [2]): did not bind
Substance: KRLEVDIDIK [FP10, synthetic fibrin peptide without crossbeta structure (negative control)]

# of unique peptides (BiP-Sepharose; Sample 1B): 3
# of unique peptides (BiP-Sepharose; Sample 3B): 8
Substance: Apolipoprotein A-I precursor

# of unique peptides (BiP-Sepharose; Sample 1B): 1
# of unique peptides (BiP-Sepharose; Sample 2B): 1
# of unique peptides (BiP-Sepharose; Sample 3B): 1
# of unique peptides (BiP-Sepharose; Sample 5B): 1
# of unique peptides (BiP-Sepharose; Sample 6B): 1
Substance: Heat shock 70 kDa protein 1L

# of unique peptides (BiP-Sepharose; Sample 1B): 9
# of unique peptides (BiP-Sepharose; Sample 3B): 12
Substance: Apolipoprotein B-100 precursor

# of unique peptides (BiP-Sepharose; Sample 1B): 4
# of unique peptides (BiP-Sepharose; Sample 2B): 1
Substance: IGHG4 protein, immunoglobulin heavy constant gamma 4

# of unique peptides (BiP-Sepharose; Sample 1B): 2
Substance: Single-chain Fv (Fragment), Ig heavy chain V-III region TRO

# of unique peptides (BiP-Sepharose; Sample 1B): 10
# of unique peptides (BiP-Sepharose; Sample 2B): 2
# of unique peptides (BiP-Sepharose; Sample 5B): 2
Substance: fibronectin 1 isoform 4 preproprotein
